The source of these data is patent publication US20240269306A1 (MERSANA THERAPEUTICS, published 2024).

The target in experiment [1] is T1, Monkey B7-H4 protein (Creative Biomart; VTCN1-1519R) (monkey).
T1 construct: Bought protein
In words: ELISA, coated monkey B7-H4, mean of two studies. For orientation: In an ELISA, binding on a coated surface is turned into a signal by an enzyme label.

In experiment [2] the target is T2, Human B7-H4 on the cell surface (MX-1, HCC1569, CAMA-1 cells); HEK-293 cells stably transfected with human … (human, UniProt Q7Z7D3 25-282).
T2 construct: The cell line of each result is named under assay or readout; also called cell surface B7-H4
T2 sequence: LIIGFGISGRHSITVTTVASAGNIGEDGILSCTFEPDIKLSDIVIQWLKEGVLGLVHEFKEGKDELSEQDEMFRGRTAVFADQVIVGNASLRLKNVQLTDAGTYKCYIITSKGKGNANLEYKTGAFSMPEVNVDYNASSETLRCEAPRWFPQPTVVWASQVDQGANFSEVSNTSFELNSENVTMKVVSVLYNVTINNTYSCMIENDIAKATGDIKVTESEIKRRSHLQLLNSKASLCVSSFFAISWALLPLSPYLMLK
In words: flow cytometry, HEK-293 cells stably transfected with human B7-H4, mean of two experiments. On the technique in general: In flow cytometry, cells or beads pass a laser one at a time.

The target in experiment [3] is T3, Recombinant human B7-H4 protein (R&D Systems #6576-B7-050) (human, UniProt Q7Z7D3 29-258).
T3 construct: Bought protein
T3 sequence: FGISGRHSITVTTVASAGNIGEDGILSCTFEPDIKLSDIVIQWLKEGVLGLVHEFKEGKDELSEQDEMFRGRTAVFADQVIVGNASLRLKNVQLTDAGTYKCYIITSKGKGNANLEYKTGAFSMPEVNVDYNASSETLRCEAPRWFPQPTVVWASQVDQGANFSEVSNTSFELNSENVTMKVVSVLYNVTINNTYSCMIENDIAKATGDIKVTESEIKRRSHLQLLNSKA
Description: ELISA, coated human B7-H4, mean of two studies.

The target in experiment [4] is T2, Human B7-H4 on the cell surface (MX-1, …). Description: flow cytometry, MX-1 cells.
Experiment [5] deals with T3, Recombinant human B7-H4 protein (R&D …). In words: ELISA, coated recombinant human B7-H4.
The target in experiment [6] is T2, Human B7-H4 on the cell surface (MX-1, …). In words: flow cytometry, MX-1 cells, mean of two experiments.
For experiment [7], the target named is T3, Recombinant human B7-H4 protein (R&D …). Description: ELISA, coated recombinant human B7-H4. This is another data set of the same source.
For experiment [8] the target is unchanged. In words: ELISA, coated recombinant human B7-H4. The source holds these as a separate data set.
The target of experiment [9] is T4, Mouse B7-H4 protein (Creative Biomart; VTCN1-1519R) (mouse, UniProt Q7TSP5 25-257).
T4 construct: Bought protein
T4 sequence (looked up): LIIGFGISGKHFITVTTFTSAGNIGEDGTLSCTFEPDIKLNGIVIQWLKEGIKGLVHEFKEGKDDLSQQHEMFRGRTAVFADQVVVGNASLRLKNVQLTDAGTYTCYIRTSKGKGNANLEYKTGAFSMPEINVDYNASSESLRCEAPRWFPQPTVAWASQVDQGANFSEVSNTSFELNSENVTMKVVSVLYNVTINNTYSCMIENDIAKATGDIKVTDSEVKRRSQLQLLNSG
Description: ELISA, coated mouse B7-H4, mean of two studies.

For experiment [10], the target named is T5, Rat B7-H4 protein (R&D Systems 10085-B7) (rat, UniProt Q501W4 29-257, limits assumed).
T5 construct: Bought protein
T5 sequence (looked up): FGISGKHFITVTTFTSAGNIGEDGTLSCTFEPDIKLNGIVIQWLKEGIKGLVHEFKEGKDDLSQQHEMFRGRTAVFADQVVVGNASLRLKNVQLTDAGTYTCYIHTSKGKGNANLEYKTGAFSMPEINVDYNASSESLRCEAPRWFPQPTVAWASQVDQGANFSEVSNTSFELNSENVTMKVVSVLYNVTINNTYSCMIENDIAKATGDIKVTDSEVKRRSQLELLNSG
Description: ELISA, coated rat B7-H4, mean of two studies.

B1: Palivizumab (antibody, V domains shown)
VH: QVTLRESGPALVKPTQTLTLTCTFSGFSLSTSGMSVGWIRQPPGKALEWLADIWWDDKKDYNPSLKSRLTISKDTSKNQVVLKVTNMDPADTATYYCARSMITNWYFDVWGAGTTVTVSS
VL: DIQMTQSPSTLSASVGDRVTITCKCQLSVGYMHWYQQKPGKAPKLLIYDTSKLASGVPSRFSGSGSGTEFTLTISSLQPDDFATYYCFQGSGYPFTFGGGTKLEIK
For orientation: EC50 means the concentration at which the effect is half-maximal. B1: the concentration giving a half-maximal response (EC50) is above 0.1 µM in [1]; above 0.1 µM in [2]; above 0.1 µM in [3]; above 0.2 µM in experiment [4]; above 0.1 µM in [5]; above 0.1 µM in experiment [6]. In addition, the EC50 in experiment [7], in [8], in experiment [9] and in [10] was above 0.1 µM each time.
